The nature of the data set: soluble on expression in E. coli; label from the status in PepcDB or PDB records.
As for “MSLGEPEELVIGGVFSLSSGTSVEACRQALAGAMAAVEWVNSNGGVNIGGSKVPVRLLQEDDKGDPANAVRLIEYMARQRGVGVMLAPCDPGVLVDAVEAARGYGVVSIVYGDAPASVADPGGKTLLVGAPAEEYFTPVLEMVSILDIQSRNLAIVYQDTGFAAAVAEATRNRAVEQGFVVVLYSAYPPQAGEEELGTLALRLQASNPDVIIAIGGFRDGVELVRAMSSYGVEAKFIAMAVAPSVPEFYSELGALSQAILYPTLWELASKPYTTAEGYEWFGPSREEFYSLFREAIESLGHPVSEPGYHAAMAALAVLAVAKAAEEAGSLDPDAIYESLKNIKIMTFAGPFDLNPETGLQNEREVLVGQWINGRRFTVWPVGQAYATPVYPHEGHHHHHH”, the “soluble on expression in E. coli” value was “soluble”.

In the case of “MGSDKIHHHHHHMKKPQSNFPHLQLKDGILKDQLYHAFREAILDGRLHPRMKLPSSRALSETMQISRNSVLQGFERLIDEGYLLTKPGSGTYVSDTIPDELIDIPNSSRESAQAFDSNVDINPQLIEMARLKAKGNTDHSHSMLNIGVGCVDLFPHQLWGRLLGRVWRQSRKTLGKSNHSAGYLPLREAISDYARSTRGLNCTPEQIIIVNGTQQAINLTAQVLLQQGDEVWLDEPGYDGALGAFLSQNMRVRPVSVDVEGTNIADAIQRYPAVKLAFTAPSHQFPLGGMLSLPRRLALLDWAAEQSKWILEDDYNGEFRYSARPIQALQGLDKYQRVIYAGTFSKMLLPELRLGFLVVPSKLVQAFQLAKHYADTHTAHLEQATLALFITEGHYARHVRRVRKACLARQTALIAAIEQYLPDKLSVQTSDSGIHLVCWLKGDLTEEKVINKCRQLSLGAQPLSRYCQAPYPRQAILLGYAAHTPDELRESIKKLAQIL”, the “soluble on expression in E. coli” value is given as “not soluble”.

As to “MENIHDLWERALKSMEKKVSKPSFETWLKQTKANSIEDSTIIITAPNEFARDWLEKHYDELISETIDDLTGVRLYPKFVIPTSQLDEPFVEQELKKPMKQPPAQNGEMPNNMLNDKYTFDTFVIGSGNRFAHAASLAVAEAPAKAYNPLFIYGGVGLGKTHLMHAIGHYVMDHNPNAKVVYLSSEKFTNEFINAIRDNKAVNFRNKYRNVDVLLIDDIQFLAGKEQTQEEFFHTFNALHEDNKQIVISSDRPPKEIPTLEDRLRSRFEWGLITDITPPDLETRIAILRKKAKAENLDIPNEVMLYIANQIDTNIRELEGALIRVVAYSSLINQDMNADLAAEALKDIIPNAKPRVLTITDIQKTVGEYFHVKLEDFKAKKRTKSVAFPRQIAMYLSRELTDASLPKIGSEFGGRDHTTVIHAHEKISKLLSTDQELQDKIQDISDKLRSLEHHHHHH”, the “soluble on expression in E. coli” value is reported as “soluble”.

For “MSPLTTFLTDAQQQTLHQLIVSARDSGANEEMVKESMDEYLAQILSPDRLQELKTAHDEFEAQRRGKRAAISASDKPEPKKVFDIIDQFTSDYQKFYEESSAVRNRNNIN”, the “soluble on expression in E. coli” value is recorded as “soluble”.

For the sequence “MAAEIINGEKVIRKPNALYSDYPRKGGAASTATHYCPGCGHGVLHKLIAEAIDDLGIQDRTVMISPVGCAVFAYYYFDTGNIQVAHGRAPAVGTGVSRAEENAVVISYQGDGDLASIGLNETLQAANRGEKIAVFFVNNTVYGMTGGQMAPTTLIGEKTTTTPEGRDPRFAGYPLHMCELLDNLKAPVFIERVSVSDISHIRKARKAIRKALEVQRDGKGYAFVEVLAACPTNLRMDAEQAVSFINEEMEKEFPLRNFRDDSESTEPLYRGVSDFTTESLEKLYGIEADAGEKPVRADFAPIQTKIAGFGGQGVLSMGIVLAQAGVKANLNASWFPSYGPEQRGGTSNCSVVISGQPIGSPTVYTPDILIAMNRPSLERFEGAVRKGGFILYDSTIGEAETPEGVKAVSVPATEKAKEAGDERAANSFMLGVLLGLNATGLEEEAFKGALAENFAGKPRVIAFNQQMLEAGAEWARENVKI”, the “soluble on expression in E. coli” value is given as “not soluble”.

In the case of “MGSDKIHHHHHHMSAIERITKAAHLIDMNDIIREGNPTLRTVAEEVTFPLSDQEIILGEKMMQFLKHSQDPVMAEKMGLRGGVGLAAPQLDISKRIIAVLVPNIVEEGETPQEAYDLEAIMYNPKIVSHSVQDAALGEGEGCLSVDRNVPGYVVRHARVTVDYFDKDGEKHRIKLKGYNSIVVQHEIDHINGIMFYDRINEKDPFAVKDGLLILE”, the “soluble on expression in E. coli” value is listed as “soluble”.

(Values after the DeepSol protein solubility set.)
